The results in this text go back to paper PMC5073337.

In experiment [1] the target is SUMO2, full-length mouse, adenovirally overexpressed (mouse) (UniProt P61957). As to the kind of experiment: proximity ligation; fixed NRVCM; primary antibodies against SUMO2/3 (Abcam, mouse) and CnA (Upstate, rabbit); cells infected with Ad LacZ, Ad S2 or Ad S2ΔGG with or without Ad ΔCnA; read-out: percentage of PLA-positive nuclei.
Experiment [2] concerns the target SUMO2ΔGG, diglycine-deficient mouse SUMO2 mutant, adenovirally overexpressed (mouse) (UniProt P61957). The experiment is described as above.

“calcineurin A (endogenous, rat) (from UniProt P63329 1-521) (natural protein)”: the increase of PLA signal on overexpression in experiment [1] was found to be 14%; in experiment [2], 17%.
On to “constitutively active calcineurin A (from UniProt P63328 1-521) (enzyme)”, for which the PLA signal (percent) in experiment [1] turned out to be 64%; in experiment [2], 54%.
